{
  "source": "paper PMC7054047",
  "about": "(The FEBS journal, 2019)",
  "proteins": {"B1": {"name": "WSCP from Arabidopsis thaliana (natural protein, UniProt Q9C7S6 24-215, looked up)", "chain": "NEPVKDTAGNPLNTREQYFIQPVKTESKNGGGLVPAAITVLPFCPLGITQTLLPYQPGLPVSFVLALGVGSTVMTSSAVNIEFKSNIWPFCKEFSKFWEVDDSSSAPKEPSILIGGKMGDRNSSFKIEKAGEGARANVYKLTTFYGTVGAIPGVWLSAPQLIITKDTAKTLLVKFKKVDDATTATSNLYFPG"}, "B2": {"name": "WSCP M4FJ52 from Chinese cabbage (Brassica rapa subsp. Pekinensis) (natural protein)", "chain": "not shown"}, "B3": {"name": "WSCP A0A087HRG5 from Arabis alpina (natural protein)", "chain": "not shown"}},
  "data": [
    {"target": "the molecule itself", "experiment": "SEC", "values": [
      {"protein": "B1", "stoichiometry N": 4},
      {"protein": "B2", "stoichiometry N": 4},
      {"protein": "B3", "stoichiometry N": 4}
    ]}
  ]
}
